The source of these data is paper PMC8219380, “The discriminatory power of the T cell receptor” (eLife, 2021).

The term Kd denotes the free concentration of one partner at which half of the binding sites on the other are occupied at equilibrium, for simple one-to-one binding.

For assay [1], the target named is NY-ESO-1 (peptide variant NYE 5F) peptide on HLA-A*02:01 (human). Kind of assay: SPR at 37°C, new method with Bmax constrained by the W6/32 standard curve; soluble, other.
Assay [2] addresses NY-ESO-1 (NYE 9V: heteroclitic variant of the wild-type NYE-ESO 157–165 9C peptide) peptide on HLA-A*02:01 (human). The assay can be described thus: SPR at 37°C (Biacore T200), soluble 1G4 injected over immobilised biotinylated pMHC; standard method with fitted Bmax; Figure 1A–C left column, which the legend names NYE 9V; soluble, other. (In general: In SPR one partner is held on a chip, and binding of the other changes the refractive index at the surface.)

The target in the next assay is 1G4 TCR. Kind of assay: SPR, 1G4 TCR binding to immobilised pMHC (steady state, 37°C). Also noted: species or system human. As to conditions: Bmax fitted, read-out: KD (standard protocol).
The target in assay [3] is NYE 4A peptide on HLA-A*02:01. Kind of assay: SPR.
The target in assay [4] is NYE 3Y peptide on HLA-A*02:01. Kind of assay: SPR.
The target in assay [5] is NYE 5Y peptide on HLA-A*02:01. Kind of assay: SPR.
Assay [6] concerns the target NYE 6T peptide on HLA-A*02:01. Kind of assay: SPR.
The target of assay [7] is NYE 3A peptide on HLA-A*02:01. The assay can be described thus: SPR.
The target of assay [8] is NYE 9V peptide on HLA-A*02:01 (pMHC). Kind of assay: SPR.
Assay [9] deals with NYE 5F peptide on HLA-A*02:01. Kind of assay: SPR.
The target in assay [10] is NYE 9V peptide on HLA-A*02:01. Kind of assay: SPR.
Assay [11] has as its target NYE 5F peptide on HLA-A*02:01. The assay can be described thus: SPR; Bmax constrained, 37°C.
Assay [12] has as its target NYE 9V peptide on HLA-A*02:01. Kind of assay: SPR; Bmax constrained, 37°C.
Assay [13] addresses NYE 5F peptide on HLA-A*02:01. Kind of assay: SPR; 37°C.
Assay [14] addresses NYE 5F peptide on HLA-A*02:01. The assay can be described thus: SPR; Bmax fitted, 37°C.
Assay [15] deals with NYE 9V peptide on HLA-A*02:01. The assay can be described thus: SPR; Bmax fitted, 37°C.
For assay [16], the target named is Tax 5F peptide on HLA-A*02:01 (human | HTLV-1). The assay can be described thus: SPR.
Assay [17] has as its target Tax 5H peptide on HLA-A*02:01 (human | HTLV-1). Kind of assay: SPR.
The target in assay [18] is Tax 7H peptide on HLA-A*02:01 (human | HTLV-1). Kind of assay: SPR.
For assay [19], the target named is Tax 5W peptide on HLA-A*02:01 (human | HTLV-1). The assay can be described thus: SPR.
Assay [20] addresses Tax 5H8A peptide on HLA-A*02:01 (human | HTLV-1). The assay can be described thus: SPR.
Assay [21] deals with Tax 8A peptide on HLA-A*02:01 (human | HTLV-1). The assay can be described thus: SPR.
Assay [22] concerns the target Tax 1A peptide on HLA-A*02:01 (human | HTLV-1). The assay can be described thus: SPR.
In assay [23] the target is Tax 6V peptide on HLA-A*02:01 (human | HTLV-1). The assay can be described thus: SPR.
Assay [24] concerns the target Tax 7T peptide on HLA-A*02:01 (human | HTLV-1). Kind of assay: SPR.
In assay [25] the target is Tax 4A8A peptide on HLA-A*02:01 (human | HTLV-1). Kind of assay: SPR.
The target in assay [26] is Tax 7R peptide on HLA-A*02:01 (human | HTLV-1). The assay can be described thus: SPR.
Assay [27] has as its target Tax 1V peptide on HLA-A*02:01 (human | HTLV-1). Kind of assay: SPR.
Assay [28] has as its target Tax 4A peptide on HLA-A*02:01 (human | HTLV-1). The assay can be described thus: SPR.
Assay [29] has as its target Tax 8F peptide on HLA-A*02:01 (human | HTLV-1). The assay can be described thus: SPR.
Assay [30] addresses Tax 5F peptide on HLA-A*02:01 (human | HTLV-1). Kind of assay: SPR; 37°C.
In assay [31] the test system is IL-2 receptor subunit β (IL-2Rb). The assay can be described thus: Discrimination power from published data: IL-2 receptor. The settings on record: n 4, ref Levin 2012. The source says:
The broad method was to obtain a measure of ligand potency from each study. […] If not explicitly provided, we estimated ligand potency as PX , which was defined by the concentration of ligand that produced X response. To do this, we drew a horizontal line at X on a provided dose-response graph and estimated the ligand concentration where the data intercepted the horizontal line. The disadvantage with this method is that ligand potency was estimated based on the single representative graph provided in the study.
Each study often contained or cited a study that contained estimates of KD or koff for the specific TCR/pMHC interactions used in the study. We only included studies where monomeric SPR binding data was available to avoid multimeric binding parameters (e.g. when using tetramers). However, when analysing discrimination by other non-TCR receptors, we included binding data from various methods (e.g. SPR, radio labelled ligands) provided they were monomeric measurements. The use of SPR is important for weak interactions, such as TCR/pMHC, but various methods are available for higher-affinity interactions.
The plot of potency over KD or k off was fit using linear regression on log-transformed axes. We reported the slope of the fit (i.e. the discrimination power, α), the goodness-of-fit measure ( R^2 ), and the p-value for the null hypothesis that the slope is zero (i.e. α=0 ). […]

In assay [32] the test system is CD8+ T cell blasts expressing 1G4 TCR. The assay can be described thus: TCR downregulation (tetramer gMFI), plate-bound pMHC + CD58. In kind it is cell-based, human. The source says:
Figure 4. The T cell discriminatory power is enhanced by ligation of the receptors CD2 or LFA-1. (A) Protocol for stimulation of CD8^+ T cell blasts with plate-bound recombinant ligands. (B, C) Example dose-response curve for 1G4 T cell blasts stimulated with (B) peptides presented on major histocompatibility complex (pMHC) alone or (C) in combination with CD58 or ICAM1. (D, E) Potency derived from dose-response curves over KD showing the power function fit (D) with pMHC alone or (E) in combination with CD58 or ICAM1. (F) Comparison of the fitted discrimination power (α) and (G) fitted sensitivity ( C ). Shown are geometric means with each dot representing an independent experiment (n = 4–5). (F) In grey the result of a statistical test vs. 1 is shown (p=0.09 for pMHC, p=0.002 for CD58 and ICAM1, p=0.0002 for U87/1G4). Figure 4—source data 1. CD69 dose-response data for Figure 4. […]
For stimulation, T cells were counted, washed once to remove excess IL2, and 75,000 cells in 180–200 μl complete RMPI were dispensed per well. […] Cells were stained for flow cytometry and analysed immediately, or fixed and stored for up to 1 day. […]
Tetramers were produced in-house using refolded monomeric, biotinylated pMHC, and streptavidin-PE (Biolegend) at a 1:4 molar ratio. […] Samples were analysed using a BD X-20 flow cytometer, and data analysis was performed using FlowJo v10 (BD Biosciences).

Several values for one entry are separate records, joined by “and”; a condition that tells them apart may be missing. Identical values can stand only once.

For 1G4 TCR, the Kd in assay [1] was 1310 µM; in assay [2], 7 µM.
As for “NY-ESO-1 peptide: cognate NY-ESO-1 peptide of the 1G4 TCR”, the equilibrium dissociation constant (Kd) at 1G4 TCR is approximately 7 µM.
Consider soluble 1G4 αβ TCR, for which the Kd in assay [3] (Bmax constrained (new method)) was 299 µM; in [3] (Bmax fitted (standard method)), 157 µM; in assay [4] (Bmax constrained (new method)) it was 47.3 µM; in assay [4] (Bmax fitted (standard method)) it was 36.3 µM; in [5] (Bmax constrained (new method)) it was 433 µM; in assay [5] (Bmax fitted (standard method)), 191 µM. Further, the Kd in assay [6] (Bmax constrained (new method)) was 162 µM; in assay [6] (Bmax fitted (standard method)) it was 84.6 µM; in [7] (Bmax constrained (new method)), 6.28 µM; in assay [7] (Bmax fitted (standard method)), 7.04 µM; in [8], 7 µM; in assay [9] it was 756 µM. For the same molecule, the Kd in [10] (Bmax constrained (new method)) is 4.93 µM; in assay [10] (Bmax fitted (standard method)), 7.97 µM; in assay [11], 1590 µM; in assay [12] it was 4.6 µM; in assay [13] it was 1310 µM; in [14], 198 µM. The molecule further came in with a Kd in assay [15] of 6.8 µM.
Consider soluble A6 αβ TCR, for which the dissociation constant Kd in [16] is 3.36 µM and 2.67 µM; in [17], 36.2 µM and 56.1 µM; in assay [18], 45.8 µM and 67.8 µM; in assay [19], 6.08 µM and 5 µM; in assay [20], 2820 µM and 2320 µM; in assay [21], 599 µM and 565 µM. In addition, the Kd is 4.25 µM and 6.5 µM in assay [22]; 13.5 µM and 21.1 µM in assay [23]; 3.42 µM and 2.8 µM in [24]; 194 µM and 1870 µM in assay [25]; 11.5 µM and 21.4 µM in [26]; 6.92 µM and 7.97 µM in assay [27]. The Kd in [28] is 72.5 µM and 118 µM; in [29], 37.1 µM and 60 µM; in [30] it was 3 µM.

B1: IL-2R beta (protein, UniProt P14784 27-551, looked up)
Interleukin-2 receptor …: AVNGTSQFTCFYNSRANISCVWSQDGALQDTSCQVHAWPDRRRWNQTCELLPVSQASWACNLILGAPDSQKLTTVDIVTLRVLCREGVRWRVMAIQDFKPFENLRLMAPISLQVVHVETHRCNISWEISQASHYFERHLEFEARTLSPGHTWEEAPLLTLKQKQEWICLETLTPDTQYEFQVRVKPLQGEFTTWSPWSQPLAFRTKPAALGKDTIPWLGHLLVGLSGAFGFIILVYLLINCRNTGPWLKKVLKCNTPDPSKFFSQLSSEHGGDVQKWLSSPFPSSSFSPGGLAPEISPLEVLERDKVTQLLLQQDKVPEPASLSSNHSLTSCFTNQGYFFFHLPDALEIEACQVYFTYDPYSEEDPDEGVAGAPTGSSPQPLQPLSGEDDAYCTFPSRDDLLLFSPSLLGGPSPPSTAPGGSGAGEERMPPSLQERVPRDWDPQPLGPPTPGVPDLVDFQPPPELVLREAGEEVPDAGPREGVSFPWSRPPGQGEFRALNARLPLNTDAYLSLQELQGQDPTHLV
Turning to B1, the “Power (discrimination power)” value came to 0.546 in [31] (ID 1, output CD25 – pSTAT5 (NK cells)) and 0.743 in assay [31] (ID 2, output CD25 – %pSTAT5 (T cells)).

B2: CD58: soluble extracellular domain of human CD58, the ligand to CD2 (protein, UniProt P19256 29-215, looked up)
extracellular domain: FSQQIYGVVYGNVTFHVPSNVPLKEVLWKKQKDKVAELENSEFRAFSSFKNRVYLDTVSGSLTIYNLTSSDEDEYEMESPNITDTMKFFLYVLESLPSPTLTCALTNGSIEVQCMIPEHYNSHRGLIMYSWDCPMEQCKRNSTSIYFKMENDLPQKIQCTLSNPLFNTTSSIILTTCIPSSGHSRHR
modifications: extracellular domain
notes: soluble extracellular domain of human CD58, the ligand to CD2
Consider B2, for which the TCR downregulation result in [32] is “increased TCR downregulation”.
